Source: patent US20040005550A1 (Scripps Research, published 2004)

Experiments:
[1] = biological target: T1, human αvβ3 integrin on cells (human, UniProt P06756 31-1048; P05106 27-788); assay: cell-based or functional assay
[2] = biological target: T1, human αvβ3 integrin on cells; assay: flow cytometry, JY cells, 100 nM phorbol myristate acetate for 15 min
[3] = biological target: T1, human αvβ3 integrin on cells; assay: flow cytometry binding isotherm, αvβ3-CHO cells, no treatment
Method: (§1) Typically, cells were cultured overnight in low serum medium (e.g., 0.5% fetal bovine serum), resuspended in incubation buffer at 1-1.5×10⁷ cells/ml, and 4-6×10⁵ cells were incubated with one of these ligands for 30 min at room temperature in a final volume of 50 μl. […] After 30 min at room temperature, cells were washed and incubated with phycoerythrin-streptavidin (1:25 final dilution; Molecular Probes) for 20 min on ice. […] Cells were washed and resuspended in 0.5 ml incubation buffer containing 2 μg/ml propidium iodide (Sigma, St. Louis, Mo.). Ligand binding (FL1 channel) was analyzed immediately on the gated subset of live cells (propidium iodide-negative, FL3) that was strongly positive for αᵥβ₃ expression (FL2). Binding isotherms were subjected to non-linear, least squares regression analysis using an equation for one-site binding (Prism 2.0 software; GraphPad Software, San Diego, Calif.). Two-tailed P values for paired samples were obtained by Student's t test.

[4] = biological target: T2, αIIbβ3 on human platelets (human, UniProt P08514 32-1039; P05106 27-788); assay: flow cytometry on human platelets
T2 construct: whole, on cells; also called platelet αIIbβ3
T2 sequence (P08514 32-1039, chain 1 of 2): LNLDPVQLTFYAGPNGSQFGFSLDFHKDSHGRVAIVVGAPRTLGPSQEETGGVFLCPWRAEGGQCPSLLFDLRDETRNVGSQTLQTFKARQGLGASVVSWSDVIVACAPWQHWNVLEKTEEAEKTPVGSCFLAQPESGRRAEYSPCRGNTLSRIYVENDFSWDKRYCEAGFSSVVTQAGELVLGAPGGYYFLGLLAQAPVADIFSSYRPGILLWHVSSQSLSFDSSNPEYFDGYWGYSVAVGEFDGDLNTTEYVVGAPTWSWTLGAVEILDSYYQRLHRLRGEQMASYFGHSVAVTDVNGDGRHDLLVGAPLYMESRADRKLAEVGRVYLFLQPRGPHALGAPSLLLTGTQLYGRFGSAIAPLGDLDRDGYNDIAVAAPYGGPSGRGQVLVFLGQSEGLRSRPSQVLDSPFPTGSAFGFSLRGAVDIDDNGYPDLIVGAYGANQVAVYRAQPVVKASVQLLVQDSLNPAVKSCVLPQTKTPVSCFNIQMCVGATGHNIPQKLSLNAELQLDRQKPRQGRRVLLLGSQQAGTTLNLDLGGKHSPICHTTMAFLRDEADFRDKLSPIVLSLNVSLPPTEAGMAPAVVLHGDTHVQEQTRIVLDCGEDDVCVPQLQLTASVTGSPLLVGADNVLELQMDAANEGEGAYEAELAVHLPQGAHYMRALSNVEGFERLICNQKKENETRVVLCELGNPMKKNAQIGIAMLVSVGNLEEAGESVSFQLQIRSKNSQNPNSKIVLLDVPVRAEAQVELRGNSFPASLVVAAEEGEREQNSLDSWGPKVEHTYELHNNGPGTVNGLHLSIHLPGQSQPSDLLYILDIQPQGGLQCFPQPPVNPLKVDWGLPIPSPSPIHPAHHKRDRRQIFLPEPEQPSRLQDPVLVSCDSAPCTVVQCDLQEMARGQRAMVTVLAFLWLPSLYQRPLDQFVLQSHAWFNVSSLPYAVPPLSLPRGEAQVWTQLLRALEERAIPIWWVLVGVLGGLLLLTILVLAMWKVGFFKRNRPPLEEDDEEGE
T2 sequence (P05106 27-788, chain 2 of 2): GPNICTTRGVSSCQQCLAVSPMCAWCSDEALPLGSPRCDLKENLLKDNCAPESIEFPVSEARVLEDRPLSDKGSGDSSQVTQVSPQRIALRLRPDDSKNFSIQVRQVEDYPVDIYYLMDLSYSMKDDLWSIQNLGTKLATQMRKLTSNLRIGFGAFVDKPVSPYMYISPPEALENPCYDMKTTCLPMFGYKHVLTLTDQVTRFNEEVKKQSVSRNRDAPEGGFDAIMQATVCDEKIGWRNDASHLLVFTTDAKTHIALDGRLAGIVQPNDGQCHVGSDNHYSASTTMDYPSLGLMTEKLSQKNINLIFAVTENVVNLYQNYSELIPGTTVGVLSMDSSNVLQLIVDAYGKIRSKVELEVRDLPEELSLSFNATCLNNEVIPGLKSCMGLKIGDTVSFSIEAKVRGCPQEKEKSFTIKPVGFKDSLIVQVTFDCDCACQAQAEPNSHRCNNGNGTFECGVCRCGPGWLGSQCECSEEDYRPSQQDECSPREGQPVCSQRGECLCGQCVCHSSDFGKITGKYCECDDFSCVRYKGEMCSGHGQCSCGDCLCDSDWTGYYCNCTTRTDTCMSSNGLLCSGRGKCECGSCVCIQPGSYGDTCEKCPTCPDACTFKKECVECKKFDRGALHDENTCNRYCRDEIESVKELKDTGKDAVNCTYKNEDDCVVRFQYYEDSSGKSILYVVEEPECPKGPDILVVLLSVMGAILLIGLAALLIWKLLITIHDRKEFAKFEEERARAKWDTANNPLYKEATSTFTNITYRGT

[5] = biological target: T1, human αvβ3 integrin on cells; assay: flow cytometry binding isotherm, αvβ3-CHO cells, activating antibody AP5
Method: as §1

[6] = biological target: T1, human αvβ3 integrin on cells; assay: flow cytometry, equilibrium binding, unstimulated αvβ3-CHO cells; reference aPB

T1 sequence (P06756 31-1048, chain 1 of 2): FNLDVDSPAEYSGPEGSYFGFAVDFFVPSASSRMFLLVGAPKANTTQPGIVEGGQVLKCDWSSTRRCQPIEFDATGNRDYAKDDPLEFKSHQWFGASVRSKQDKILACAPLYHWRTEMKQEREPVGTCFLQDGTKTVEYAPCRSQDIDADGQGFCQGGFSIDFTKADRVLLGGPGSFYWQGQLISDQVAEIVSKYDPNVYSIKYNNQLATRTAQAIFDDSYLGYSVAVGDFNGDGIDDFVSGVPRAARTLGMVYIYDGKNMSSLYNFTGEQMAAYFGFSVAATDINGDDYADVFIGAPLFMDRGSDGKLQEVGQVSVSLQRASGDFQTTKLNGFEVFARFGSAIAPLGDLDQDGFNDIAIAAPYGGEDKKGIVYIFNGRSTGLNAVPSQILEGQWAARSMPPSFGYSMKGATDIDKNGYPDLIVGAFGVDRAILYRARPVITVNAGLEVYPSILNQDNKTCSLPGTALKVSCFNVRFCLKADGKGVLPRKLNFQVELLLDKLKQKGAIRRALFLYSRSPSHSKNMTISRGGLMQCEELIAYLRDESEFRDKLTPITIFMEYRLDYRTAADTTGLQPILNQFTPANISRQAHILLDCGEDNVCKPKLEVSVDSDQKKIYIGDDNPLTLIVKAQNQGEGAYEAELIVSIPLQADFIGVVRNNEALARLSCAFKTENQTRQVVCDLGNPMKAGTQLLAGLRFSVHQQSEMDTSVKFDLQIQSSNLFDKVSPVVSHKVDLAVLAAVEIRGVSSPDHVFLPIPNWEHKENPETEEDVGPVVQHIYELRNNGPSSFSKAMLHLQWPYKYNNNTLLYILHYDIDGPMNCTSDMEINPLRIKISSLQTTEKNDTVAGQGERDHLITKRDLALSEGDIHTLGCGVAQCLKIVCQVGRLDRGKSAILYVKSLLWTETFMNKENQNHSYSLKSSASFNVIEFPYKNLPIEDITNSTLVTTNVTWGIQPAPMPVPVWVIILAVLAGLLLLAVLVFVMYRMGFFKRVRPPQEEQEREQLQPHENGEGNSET
T1 sequence (P05106 27-788, chain 2 of 2): as the sequence (P05106 27-788, chain 2 of 2) above

Binder | shift of the adhesion dose-response curve with AP5 against no additive [1] | fold increase in specific binding with phorbol myristate acetate against no agonist [2] | Kd [3] | binding result [4] | Kd [5] | fold lower affinity/avidity than for aPB [6]
Recombinant penton base from adenovirus type 2 (ligand, also called Alexa-penton base; aPB) MQRAAMYEEGPPPSYESVVSAAPVAAALGSPFDAPLDPPFVPPRYLRPTGGRNSIRYSELAPLFDTTRVYLVDNKSTDVASLNYQNDHSNFLTTVIQNNDYSPGEASTQTINLDDRSHWGGDLKTILHTNMPNVNEFMFTNKFKARVMVSRSLTKDKQVELKYEWVEFTLPEGNYSETMTIDLMNNAIVEHYLKVGRQNGVLESDIGVKFDTRNFRLGFDPVTGLVMPGVYTNEAFHPDIILLPGCGVDFTHSRLSNLLGIRKRQPFQEGFRITYDDLEGGNIPALLDVDAYQASLKDDTEQGGDGAGGGNNSGSGAEENSNAAAAAMQPVEDMNDHAIRGDTFATRAEEKRAEAEAAAEAAAPAAQPEVEKPQKKPVIKPLTEDSKKRSYNLISNDSTFTQYRSWYLAYNYGDPQTGIRSWTLLCTPDVTCGSEQVYWSLPDMMQDPVTFRSTSQISNFPVVGAELLPVHSKSFYNDQAVYSQLIRQFTSLTHVFNRFPENQILARPPAPTITTVSENVPALTDHGTLPLRNSIGGVQRVTITDARRRTCPYVYKALGIVSPRVLSSRTF | 7 fold | 2.7 fold | 550 nM | no binding | 160 nM | 
Purified human fibrinogen (ligand, also called FITC-fibrinogen) chain 1: ADSGEGDFLAEGGGVRGPRVVERHQSACKDSDWPFCSDEDWNYKCPSGCRMKGLIDEVNQDFTNRINKLKNSLFEYQKNNKDSHSLTTNIMEILRGDFSSANNRDNTYNRVSEDLRSRIEVLKRKVIEKVQHIQLLQKNVRAQLVDMKRLEVDIDIKIRSCRGSCSRALAREVDLKDYEDQQKQLEQVIAKDLLPSRDRQHLPLIKMKPVPDLVPGNFKSQLQKVPPEWKALTDMPQMRMELERPGGNEITRGGSTSYGTGSETESPRNPSSAGSWNSGSSGPGSTGNRNPGSSGTGGTATWKPGSSGPGSTGSWNSGSSGTGSTGNQNPGSPRPGSTGTWNPGSSERGSAGHWTSESSVSGSTGQWHSESGSFRPDSPGSGNARPNNPDWGTFEEVSGNVSPGTRREYHTEKLVTSKGDKELRTGKEKVTSGSTTTTRRSCSKTVTKTVIGPDGHKEVTKEVVTSEDGSDCPEAMDLGTLSGIGTLDGFRHRHPDEAAFFDTASTGKTFPGFFSPMLGEFVSETESRGSESGIFTNTKESSSHHPGIAEFPSRGKSSSYSKQFTSSTSYNRGDSTFESKSYKMADEAGSEADHEGTHSTKRGHAKSRPV chain 2: QGVNDNEEGFFSARGHRPLDKKREEAPSLRPAPPPISGGGYRARPAKAAATQKKVERKAPDAGGCLHADPDLGVLCPTGCQLQEALLQQERPIRNSVDELNNNVEAVSQTSSSSFQYMYLLKDLWQKRQKQVKDNENVVNEYSSELEKHQLYIDETVNSNIPTNLRVLRSILENLRSKIQKLESDVSAQMEYCRTPCTVSCNIPVVSGKECEEIIRKGGETSEMYLIQPDSSVKPYRVYCDMNTENGGWTVIQNRQDGSVDFGRKWDPYKQGFGNVATNTDGKNYCGLPGEYWLGNDKISQLTRMGPTELLIEMEDWKGDKVKAHYGGFTVQNEANKYQISVNKYRGTAGNALMDGASQLMGENRTMTIHNGMFFSTYDRDNDGWLTSDPRKQCSKEDGGGWWYNRCHAANPNGRYYWGGQYTWDMAKHGTDDGVVWMNWKGSWYSMRKMSMKIRPFFPQQ chain 3: YVATRDNCCILDERFGSYCPTTCGIADFLSTYQTKVDKDLQSLEDILHQVENKTSEVKQLIKAIQLTYNPDESSKPNMIDAATLKSRKMLEEIMKYEASILTHDSSIRYLQEIYNSNNQKIVNLKEKVAQLEAQCQEPCKDTVQIHDITGKDCQDIANKGAKQSGLYFIKPLKANQQFLVYCEIDGSGNGWTVFQKRLDGSVDFKKNWIQYKEGFGHLSPTGTTEFWLGNEKIHLISTQSAIPYALRVELEDWNGRTSTADYAMFKVGPEADKYRLTYAYFAGGDAGDAFDGFDFGDDPSDKFFTSHNGMQFSTWDNDNDKFEGNCAEQDGSGWWMNKCHAGHLNGVYYQGGTYSKASTPNGYDNGIIWATWKTRWYSMKKTTMKIIPFNRLTIGEGQQHHLGGAKQAGDV |  |  | 9200 nM |  | 566 nM | ~15 fold
